B1: Tumor necrosis factor receptor superfamily member 13B (Homo sapiens), O14836-2 (parent)
chain: MSGLGRSRRGGRSRVDQEERWSLSCRKEQGKFYDHLLRDCISCASICGQHPKQCAYFCENKLRSPVNLPPELRRQRSGEVENNSDNSGRYQGLEHRGSEASPALPGLKLSADQVALVYSTLGLCLCAVLCCFLVAVACFLKKRGDPCSCQPRSRPRQSPAKSSQDHAMEAGSPVSTSPEPVETCSFCFPECRAPTQESAVTPGTPDPTCAGRWGCHTRTTVLQPCPHIPDSGLGIVCVPAQEGGPGA
B2: Hepatocyte nuclear factor 4-alpha (Homo sapiens), P41235-3 (parent)
chain: MRLSKTLVDMDMADYSAALDPAYTTLEFENVQVLTMGNDTSPSEGTNLNAPNSLGVSALCAICGDRATGKHYGASSCDGCKGFFRRSVRKNHMYSCRFSRQCVVDKDKRNQCRYCRLKKCFRAGMKKEAVQNERDRISTRRSSYEDSSLPSINALLQAEVLSRQITSPVSGINGDIRAKKIASIADVCESMKEQLLVLVEWAKYIPAFCELPLDDQVALLRAHAGEHLLLGATKRSMVFKDVLLLGNDYIVPRHCPELAEMSRVSIRILDELVLPFQELQIDDNEYAYLKAIIFFDPDAKGLSDPGKIKRLRSQVQVSLEDYINDRQYDSRGRFGELLLLLPTLQSITWQMIEQIQFIKLFGMAKIDNLLQEMLLGGPCQAQEGRGWSGDSPGDRPHTVSSPLSSLASPLCRFGQVA
B3: E3 ubiquitin-protein ligase Midline-1 (Homo sapiens), O15344 (parent)
chain: METLESELTCPICLELFEDPLLLPCAHSLCFNCAHRILVSHCATNESVESITAFQCPTCRHVITLSQRGLDGLKRNVTLQNIIDRFQKASVSGPNSPSETRRERAFDANTMTSAEKVLCQFCDQDPAQDAVKTCVTCEVSYCDECLKATHPNKKPFTGHRLIEPIPDSHIRGLMCLEHEDEKVNMYCVTDDQLICALCKLVGRHRDHQVAALSERYDKLKQNLESNLTNLIKRNTELETLLAKLIQTCQHVEVNASRQEAKLTEECDLLIEIIQQRRQIIGTKIKEGKVMRLRKLAQQIANCKQCIERSASLISQAEHSLKENDHARFLQTAKNITERVSMATASSQVLIPEINLNDTFDTFALDFSREKKLLECLDYLTAPNPPTIREELCTASYDTITVHWTSDDEFSVVSYELQYTIFTGQANVVSLCNSADSWMIVPNIKQNHYTVHGLQSGTKYIFMVKAINQAGSRSSEPGKLKTNSQPFKLDPKSAHRKLKVSHDNLTVERDESSSKKSHTPERFTSQGSYGVAGNVFIDSGRHYWEVVISGSTWYAIGLAYKSAPKHEWIGKNSASWALCRCNNNWVVRHNSKEIPIEPAPHLRRVGILLDYDNGSIAFYDALNSIHLYTFDVAFAQPVCPTFTVWNKCLTIITGLPIPDHLDCTEQLP
partner: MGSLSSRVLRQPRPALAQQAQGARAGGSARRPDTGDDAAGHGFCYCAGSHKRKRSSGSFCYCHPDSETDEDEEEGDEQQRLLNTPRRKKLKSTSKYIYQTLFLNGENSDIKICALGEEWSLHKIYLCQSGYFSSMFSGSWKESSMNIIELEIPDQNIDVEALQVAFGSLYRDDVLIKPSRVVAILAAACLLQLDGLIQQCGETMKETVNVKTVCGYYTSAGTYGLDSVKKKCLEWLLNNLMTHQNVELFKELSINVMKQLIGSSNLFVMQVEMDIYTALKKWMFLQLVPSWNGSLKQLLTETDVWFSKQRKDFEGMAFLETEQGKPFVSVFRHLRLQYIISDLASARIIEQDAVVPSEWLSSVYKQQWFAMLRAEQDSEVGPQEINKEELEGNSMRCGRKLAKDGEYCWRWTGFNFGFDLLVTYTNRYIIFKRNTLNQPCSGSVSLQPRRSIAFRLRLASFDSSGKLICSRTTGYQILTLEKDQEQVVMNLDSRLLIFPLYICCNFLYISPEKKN
B4: Cyclin-dependent kinase 4 inhibitor C (Homo sapiens), P42773 (parent)
chain: MAEPWGNELASAAARGDLEQLTSLLQNNVNVNAQNGFGRTALQVMKLGNPEIARRLLLRGANPDLKDRTGFAVIHDAARAGFLDTLQTLLEFQADVNIEDNEGNLPLHLAAKEGHLRVVEFLVKHTASNVGHRNHKGDTACDLARLYGRNEVVSLMQANGAGGATNLQ
partner: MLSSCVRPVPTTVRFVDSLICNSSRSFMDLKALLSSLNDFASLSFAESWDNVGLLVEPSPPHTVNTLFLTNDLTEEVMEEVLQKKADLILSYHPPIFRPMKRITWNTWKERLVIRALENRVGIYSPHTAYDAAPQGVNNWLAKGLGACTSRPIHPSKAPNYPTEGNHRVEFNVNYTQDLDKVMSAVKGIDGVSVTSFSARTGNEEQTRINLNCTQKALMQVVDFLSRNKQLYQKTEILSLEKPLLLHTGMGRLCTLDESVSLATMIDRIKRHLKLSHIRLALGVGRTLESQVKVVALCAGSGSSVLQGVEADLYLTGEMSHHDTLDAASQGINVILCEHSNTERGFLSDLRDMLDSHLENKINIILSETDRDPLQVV
B5: Meiotic recombination protein DMC1/LIM15 homolog (Homo sapiens), Q14565 (parent)
chain: MKEDQVVAEEPGFQDEEESLFQDIDLLQKHGINVADIKKLKSVGICTIKGIQMTTRRALCNVKGLSEAKVDKIKEAANKLIEPGFLTAFEYSEKRKMVFHITTGSQEFDKLLGGGIESMAITEAFGEFRTGKTQLSHTLCVTAQLPGAGGYPGGKIIFIDTENTFRPDRLRDIADRFNVDHDAVLDNVLYARAYTSEHQMELLDYVAAKFHEEAGIFKLLIIDSIMALFRVDFSGRGELAERQQKLAQMLSRLQKISEEYNVAVFVTNQMTADPGATMTFQADPKKPIGGHILAHASTTRISLRKGRGELRIAKIYDSPEMPENEATFAITAGGIGDAKE
partner: B4 partner
B6: Inactive peptidyl-prolyl cis-trans isomerase FKBP6 (Homo sapiens), O75344 (parent)
chain: MGGSALNQGVLEGDDAPGQSLYERLSQRMLDISGDRGVLKDVIREGAGDLVAPDASVLVKYSGYLEHMDRPFDSNYFRKTPRLMKLGEDITLWGMELGLLSMRRGELARFLFKPNYAYGTLGCPPLIPPNTTVLFEIELLDFLDCAESDKFCALSAEQQDQFPLQKVLKVAATEREFGNYLFRQNRFYDAKVRYKRALLLLRRRSAPPEEQHLVEAAKLPVLLNLSFTYLKLDRPTIALCYGEQALIIDQKNAKALFRCGQACLLLTEYQKARDFLVRAQKEQPFNHDINNELKKLASCYRDYVDKEKEMWHRMFAPCGDGSTAGES
B7: 60 kDa heat shock protein, mitochondrial (Homo sapiens), P10809 (parent)
chain: MLRLPTVFRQMRPVSRVLAPHLTRAYAKDVKFGADARALMLQGVDLLADAVAVTMGPKGRTVIIEQSWGSPKVTKDGVTVAKSIDLKDKYKNIGAKLVQDVANNTNEEAGDGTTTATVLARSIAKEGFEKISKGANPVEIRRGVMLAVDAVIAELKKQSKPVTTPEEIAQVATISANGDKEIGNIISDAMKKVGRKGVITVKDGKTLNDELEIIEGMKFDRGYISPYFINTSKGQKCEFQDAYVLLSEKKISSIQSIVPALEIANAHRKPLVIIAEDVDGEALSTLVLNRLKVGLQVVAVKAPGFGDNRKNQLKDMAIATGGAVFGEEGLTLNLEDVQPHDLGKVGEVIVTKDDAMLLKGKGDKAQIEKRIQEIIEQLDVTTSEYEKEKLNERLAKLSDGVAVLKVGGTSDVEVNEKKDRVTDALNATRAAVEEGIVLGGGCALLRCIPALDSLTPANEDQKIGIEIIKRTLKIPAMTIAKNAGVEGSLIVEKIMQSSSEVGYDAMAGDFVNMVEKGIIDPTKVVRTALLDAAGVASLLTTAEVVVTEIPKEEKDPGMGAMGGMGGGMGGGMF
B8: Phospholamban (Homo sapiens), P26678 (parent)
chain: MEKVQYLTRSAIRRASTIEMPQQARQKLQNLFINFCLILICLLLICIIVMLL

Variants of: B1
Conditions: with sgta_human SGTA

| Variant | effect of a mutation on the interaction |
| --- | --- |
| L125R | disrupting interaction strength |
| K142M | with no effect |
| V174A | with no effect |
| V200F | with no effect |
| P205L | with no effect |

Variants of: B2
Conditions: with plpp2_human PLPP2, O43688
plpp2_human PLPP2, O43688, sequence (O43688 whole entry, looked up): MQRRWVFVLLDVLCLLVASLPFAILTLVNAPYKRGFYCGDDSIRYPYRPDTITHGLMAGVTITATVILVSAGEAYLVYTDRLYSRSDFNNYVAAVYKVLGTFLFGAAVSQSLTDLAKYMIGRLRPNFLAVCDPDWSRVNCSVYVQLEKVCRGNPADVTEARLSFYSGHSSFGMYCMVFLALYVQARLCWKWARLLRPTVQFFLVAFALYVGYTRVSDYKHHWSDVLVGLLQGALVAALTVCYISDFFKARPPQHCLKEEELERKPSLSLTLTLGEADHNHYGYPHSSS

| Variant | effect of a mutation on the interaction |
| --- | --- |
| C102W | disrupting interaction strength |

Variants of: B2
Conditions: with if1ay_human EIF1AY

| Variant | effect of a mutation on the interaction |
| --- | --- |
| C102W | disrupting interaction strength |

Variants of: B2
Conditions: with dmd_human DMD

| Variant | effect of a mutation on the interaction |
| --- | --- |
| C102W | disrupting interaction strength |

Variants of: B3
Conditions: with gmcl1_human GMCL1, Q96IK5

| Variant | effect of a mutation on the interaction |
| --- | --- |
| P151L | with no effect |
| C266R | with no effect |
| K370E | with no effect |
| L626P | with no effect |

Variants of: B4
Conditions: with nif3l_human NIF3L1, Q9GZT8

| Variant | effect of a mutation on the interaction |
| --- | --- |
| V31L | disrupting interaction strength |

Variants of: B5
Conditions: with nif3l_human NIF3L1, Q9GZT8

| Variant | effect of a mutation on the interaction |
| --- | --- |
| M200V | disrupting interaction strength |

Variants of: B6
Conditions: with lzts2_human LZTS2, Q9BRK4
Target sequence in this assay (Q9BRK4 whole entry): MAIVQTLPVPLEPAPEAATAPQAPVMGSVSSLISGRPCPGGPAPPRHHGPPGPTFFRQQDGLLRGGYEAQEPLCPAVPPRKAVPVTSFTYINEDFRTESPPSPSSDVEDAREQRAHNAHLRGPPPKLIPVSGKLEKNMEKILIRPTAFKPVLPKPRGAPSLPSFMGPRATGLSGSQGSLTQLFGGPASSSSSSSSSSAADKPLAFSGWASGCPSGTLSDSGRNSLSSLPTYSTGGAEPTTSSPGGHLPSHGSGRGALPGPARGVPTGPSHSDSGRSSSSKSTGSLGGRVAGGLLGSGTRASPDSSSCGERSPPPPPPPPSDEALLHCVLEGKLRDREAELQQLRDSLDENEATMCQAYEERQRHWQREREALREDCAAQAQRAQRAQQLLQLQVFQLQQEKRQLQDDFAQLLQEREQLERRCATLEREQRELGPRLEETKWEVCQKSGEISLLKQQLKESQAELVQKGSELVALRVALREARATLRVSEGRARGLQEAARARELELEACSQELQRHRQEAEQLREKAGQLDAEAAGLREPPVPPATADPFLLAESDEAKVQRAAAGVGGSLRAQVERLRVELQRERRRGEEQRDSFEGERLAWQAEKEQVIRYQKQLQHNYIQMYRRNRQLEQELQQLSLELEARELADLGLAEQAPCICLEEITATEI

| Variant | effect of a mutation on the interaction |
| --- | --- |
| F72L | disrupting interaction strength |
| R202H | with no effect |

Variants of: B6
Conditions: with meox2_human MEOX2, P50222
meox2_human MEOX2, P50222, sequence (P50222 whole entry): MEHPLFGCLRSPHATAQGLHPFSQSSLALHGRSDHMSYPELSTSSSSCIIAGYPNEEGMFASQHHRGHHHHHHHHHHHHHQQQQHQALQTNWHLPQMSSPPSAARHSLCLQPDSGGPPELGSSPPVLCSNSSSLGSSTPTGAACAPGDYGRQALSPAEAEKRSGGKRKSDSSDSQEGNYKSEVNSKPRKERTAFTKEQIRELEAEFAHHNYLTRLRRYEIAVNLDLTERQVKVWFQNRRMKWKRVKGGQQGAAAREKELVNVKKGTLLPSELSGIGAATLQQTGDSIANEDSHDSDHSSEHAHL

| Variant | effect of a mutation on the interaction |
| --- | --- |
| F72L | disrupting interaction strength |
| R202H | with no effect |

Variants of: B7
Conditions: with lzts2_human LZTS2, Q9BRK4
Target sequence in this assay (Q9BRK4 whole entry): as the sequence (Q9BRK4 whole entry) above

| Variant | effect of a mutation on the interaction |
| --- | --- |
| D29G | disrupting interaction strength |
| V98I | with no effect |
| Q461E | with no effect |

Variants of: B8
Conditions: with BCL2L13, Q9BXK5
BCL2L13, Q9BXK5, sequence (Q9BXK5 whole entry): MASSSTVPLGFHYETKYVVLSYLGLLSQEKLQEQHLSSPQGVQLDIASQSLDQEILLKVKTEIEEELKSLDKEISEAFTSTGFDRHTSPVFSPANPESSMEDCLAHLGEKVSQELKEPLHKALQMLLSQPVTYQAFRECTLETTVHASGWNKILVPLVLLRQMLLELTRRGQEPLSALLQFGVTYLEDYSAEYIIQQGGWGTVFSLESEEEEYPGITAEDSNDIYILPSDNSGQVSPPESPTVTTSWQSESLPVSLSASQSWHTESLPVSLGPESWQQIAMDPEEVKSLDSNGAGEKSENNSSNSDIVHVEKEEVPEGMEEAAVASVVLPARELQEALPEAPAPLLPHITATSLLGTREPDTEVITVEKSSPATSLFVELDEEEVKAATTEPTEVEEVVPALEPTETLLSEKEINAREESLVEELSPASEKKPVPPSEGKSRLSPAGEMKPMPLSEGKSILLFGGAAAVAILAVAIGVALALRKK

| Variant | effect of a mutation on the interaction |
| --- | --- |
| R9C | with no effect |

Variants of: B8
Conditions: with eda_human EDA

| Variant | effect of a mutation on the interaction |
| --- | --- |
| R9C | with no effect |
